Laboratory results taken from patent publication US20120269826A1.

Target: CD3/TCR complex on mouse T cells (mouse) (UniProt P22646)
Assay: cell-based or functional assay

Chain of UniProt P22646 (P22646 22-189, chain 1 of 4): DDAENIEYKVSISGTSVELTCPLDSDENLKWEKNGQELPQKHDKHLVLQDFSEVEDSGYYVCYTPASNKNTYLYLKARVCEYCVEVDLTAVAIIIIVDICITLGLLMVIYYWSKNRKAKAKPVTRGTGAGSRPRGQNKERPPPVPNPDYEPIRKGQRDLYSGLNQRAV
Chain of UniProt P22646 (P11942 23-182, chain 2 of 4, further chain): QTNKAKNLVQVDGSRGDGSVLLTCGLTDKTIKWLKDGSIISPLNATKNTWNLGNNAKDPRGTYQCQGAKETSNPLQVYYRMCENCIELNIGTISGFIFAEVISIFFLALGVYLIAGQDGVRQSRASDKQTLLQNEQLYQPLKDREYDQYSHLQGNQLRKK
Chain of UniProt P22646 (P04235 22-173, chain 3 of 4, further chain): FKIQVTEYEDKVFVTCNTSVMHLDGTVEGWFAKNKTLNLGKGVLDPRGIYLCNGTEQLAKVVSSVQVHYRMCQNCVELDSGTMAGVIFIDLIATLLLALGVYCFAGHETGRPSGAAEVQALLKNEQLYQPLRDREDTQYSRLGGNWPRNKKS
Chain of UniProt P22646 (P24161 22-164, chain 4 of 4, further chain): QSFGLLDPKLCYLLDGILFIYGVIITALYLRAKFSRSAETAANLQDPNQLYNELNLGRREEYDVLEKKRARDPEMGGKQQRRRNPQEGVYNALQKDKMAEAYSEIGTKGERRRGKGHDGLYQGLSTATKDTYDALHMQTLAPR

CD3/TCR-complex expression 24 hr after dose 4, 5 µg dose, Study A (% of baseline): 50 | CD3/TCR-complex expression 24 hr after dose 4, 25 µg dose, Study A (% of baseline): 12 | percentage of CD3/TCR-complex modulation after the fourth dose, 1 µg (4×/72 hr) dose regimen, BALB/c mice: 19.7% | percentage of CD3/TCR-complex modulation after the fourth dose, 2 µg (4×/72 hr) dose regimen, BALB/c mice: 30.3%
Substance: anti-CD3 mAb F(ab′)2 (hamster anti-mouse CD3 mAb, clone 145-2C11)
